Molecular target: cytoplasmic dynein intermediate chain (Xenopus laevis (endogenous in egg extract))
Assay: co-IP

interphase/metaphase ratio of the amount brought down: 1.08
Substance: cytoplasmic dynein heavy chain (natural protein)
